Measured values: article PMC9750858, “Rapid biosensor development using plant hormone receptors as reprogrammable scaffolds” (Nature Biotechnology, 2022)
Where two headings read alike, the source gives them in different places.

How the values were obtained:
[1] = molecular target: T1, PYR1^PIRI / HAB1 (Arabidopsis thaliana, UniProt O49686, A160T/E130G/F159T/K59R/N119S/S122Q/S92M/V174A); experiment: Ligand/receptor-mediated PP2C (HAB1 phosphatase) inhibition, PYR1^PIRI; format: biochemical
T1 construct: made in house
T1 sequence (O49686 with tags, fused parts or gaps K59R/S92M/N119S/S122Q/E130G/F159T/A160T/V174A): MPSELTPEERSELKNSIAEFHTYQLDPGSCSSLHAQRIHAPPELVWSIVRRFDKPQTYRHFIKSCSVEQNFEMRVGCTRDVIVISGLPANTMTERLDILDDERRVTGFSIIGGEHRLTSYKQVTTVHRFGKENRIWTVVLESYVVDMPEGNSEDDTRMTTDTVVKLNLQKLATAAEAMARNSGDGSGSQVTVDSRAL

[2] = molecular target: T2, PYR1^PIRI (Arabidopsis thaliana, UniProt O49686, A160T/E130G/F159T/K59R/N119S/S122Q/S92M/V174A); experiment: Split NanoLuc luciferase complementation in yeast, NLuc^N-PYR1^PIRI/NLuc^C-HAB1; format: cell-based
T2 construct: >PYR1-PIRI; expressed in transfected cells; host or cells: Saccharomyces cerevisiae BY4742

[3] = molecular target: NLuc^N-PYR1^PIRI (Arabidopsis) (UniProt O49686)
[4] = molecular target: NLuc^N-PYR1^DIAZI (Arabidopsis) (UniProt O49686)
[5] = molecular target: NLuc^N-PYR1^WIN (Arabidopsis) (UniProt O49686)
[6] = molecular target: NLuc^N-PYR1^4F (Arabidopsis) (UniProt O49686)
[7] = molecular target: T3, ABA-PYR1M complex (Arabidopsis thaliana, UniProt O49686, H60P/N90S); experiment: Yeast surface display titration of HAB1 variants against PYR1^M in the presence of 500 nM ABA; format: binding; settings: HAB1 variant for the ABA-PYR1M complex, 95% CI in brackets, read-out: KD2
T3 construct: c-myc (display detection tag); expressed in transfected cells; host or cells: yeast (surface display of PYR1^M); the HAB1 variants were recombinant and purified
T3 sequence (O49686 1-191 H60P/N90S): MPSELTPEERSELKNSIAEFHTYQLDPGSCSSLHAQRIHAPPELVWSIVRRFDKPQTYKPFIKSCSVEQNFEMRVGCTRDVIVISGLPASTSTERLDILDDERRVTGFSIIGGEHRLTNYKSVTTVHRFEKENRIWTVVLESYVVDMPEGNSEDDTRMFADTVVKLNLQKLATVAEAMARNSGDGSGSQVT
Description: For crystallographic structures, PYL2 and ΔN-HAB1^T+ were expressed in E. coli and purified as described previously. Assays for phosphatase activity and apparent Tm, measured via thermal challenge using yeast surface display, were performed essentially as previously described.
(a) Assessment of stabilized, inactivated 6xHis -MBP-ΔN -HAB1 variants. Experiments were repeated on two separat e days using independently generated batches of protein. Error bars indicate 1 SD of 3 measure ments . Sets of mutations f or each variant are noted in Supporting File 1.
MBP-ΔN -HAB1 variants using p-NPP.
HAB1 variants using YSD of PYR1M, in the presence of 500 nM ABA and 20 nM 6xHis -MBP-ΔN -HAB1 variant. The […]
here ref ers to streptavidin -phycoerythrin.
(b) Gating strategy for analysis of data shown in part (a). The f luorescence (a.u.) reported in part (a) is the gated ΔN - HAB 1T+ binding as measured by streptavidin -phycoeryt hrin (SAPE).

T2 sequence (Q9CAJ0 179-511, one chain of several, further chain): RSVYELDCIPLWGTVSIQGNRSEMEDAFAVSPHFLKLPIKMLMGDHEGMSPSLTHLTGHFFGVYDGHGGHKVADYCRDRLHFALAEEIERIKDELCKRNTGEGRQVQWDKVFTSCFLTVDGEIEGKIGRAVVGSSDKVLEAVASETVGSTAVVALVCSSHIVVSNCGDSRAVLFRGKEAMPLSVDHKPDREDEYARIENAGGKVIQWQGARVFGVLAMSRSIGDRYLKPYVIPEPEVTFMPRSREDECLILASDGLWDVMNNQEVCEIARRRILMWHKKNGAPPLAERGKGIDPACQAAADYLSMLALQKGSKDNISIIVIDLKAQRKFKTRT

With `CCN(CC)c1nc(C)cc(OP(=S)(OC)OC)n1` [Pirimiphos-methyl, pirimiphos-methyl] the EC50 [1] was 58 nM, the “ligand concentrations required for activation of PYR1^PIRI above background” value ([1]; HAB1 inhibition and Y2H assays) was “low-nanomolar concentrations” and the EC50 [2] was 19 nM.

For “NLuc^C-ΔN-HAB1 (from UniProt Q9CAJ0 179-511) (enzyme)”, the receptor-mediated inhibition of HAB1 phosphatase activity in vitro; EC50 of the ligand pirimiphos-methyl [3] was 58 nM, the receptor-mediated inhibition of HAB1 phosphatase activity in vitro; EC50 of the ligand diazinon [4] was 36 nM and the in vitro inhibition of ΔN-HAB1 phosphatase activity by recombinant 6×His-PYR1^WIN (50 nM receptor, 25 nM ΔN-HAB1, 4-methylumbelliferyl phosphate); EC50 of the ligand WIN 55,212-2 [5] was 72 nM. For the same molecule, the in vitro inhibition of ΔN-HAB1 phosphatase activity by recombinant 6×His-PYR1^4F (25 nM receptor, 25 nM ΔN-HAB1, 4-methylumbelliferyl phosphate); EC50 of the ligand 4F-MDMB-BUTINACA [6] was 102 nM.

B1: T+ (723): stabilized, catalytically inactive ΔN-HAB1 derivative with 15 mutations (pJS723) (protein)
chain: RSVYELDSIPLWGTVSIQGNASEMEAAFAVVPHFLKLPIKMLMGDHEGMSPSLTHLTGHFFGVYDGHGGSKVADYCRDRLHEALAEEIERIKDELSKRNTGEGRQVQWKKVFTNCFLTVDGEIEGKIGRAVVGSSDKVLEAVASETVGSTAVVALVCSSHIVVANCGDSRAVLFRGKEAIPLSVDHKPDREDEYARIEAAGGKVIQWQGARVFGVLAMSRSIGDRYLKPYVIPEPEVTFMPRSEEDECLILASDGLWDVMSNQEVCEIARRRILMWHKKNGAPPLAERGKGIDPACQAAADYLSKLALQKGSKDNISIIVIDLKAQRKFKTRT
modifications: biotinylated in the ELISA-like assays
B1 gave a Kd ([7]; Biorep 1) of 2.13 nM and a Kd ([7]; Biorep 2) of 4.76 nM.
